Laboratory results as given in patent publication US20240409663A1 (CONCEPT TO MEDICINE BIOTECH, published 2024).

Legend:
human GPC3 on cells [1] = target: T1, human GPC3 on cells (human, UniProt P51654 25-554); test: FACS, Huh-7 cells
T1 construct: whole, on cells; over-expressed on CHOK1 cells or endogenous on HEPG2, Hep3B and Huh-7 hepatocellular carcinoma cells; the cell line is named under assay; also called GPC3-CHOK1 cells; human GPC3 over-expressed CHOK1 cells
Experimental: (§1) To evaluate the antigen binding property, the humanized antibodies were analyzed for their binding to human GPC3 over-expressed CHOK1 cells and Huh-7 cells by FACS. Briefly, GPC3-CHOK1 cells and Huh-7 cells were firstly incubated with Fc blocking reagent at 4° C. for 15 mins. Cells were washed by FACS buffer and divided to each well with 4-fold serially diluted humanized antibodies starting at 10 μg/mL at 4° C. for 60 mins. Cells were washed by FACS buffer and fixed with 2% PFA at RT for 15 mins. […] As different plates might affect the EC50 of 52H5D3B8-VH+VL, the 12 humanized antibodies were separated into two plates.

human GPC3 on cells [2] = target: T1, human GPC3 on cells; test: FACS, Huh-7 cells; remark: listed apart in the source
Experimental: (§2) Cell-based binding: FACS was used to evaluate the binding activity of 52H5D3B8 chimeric mAbs with comparison to a known GPC3 antibody GC33 (Chugai Pharmaceutical) on human GPC3 over-expressed CHOK1 cells, HEPG2 cells, Hep3B cells and Huh-7 cells.
(§3) Briefly, GPC3-CHOK1 cells, HEPG2 cells, Hep3B cells or Huh-7 cells were firstly incubated with Fc blocking reagent at 4° C. for 15 mins. Cells were washed by FACS buffer and divided to each well with 3-fold serially diluted 52H5D3B8 chimeric mAbs or GC33 mAb starting at 30 μg/mL at 4° C. for 60 mins. Cells were washed by FACS buffer and fixed with 2% PFA at RT for 15 mins. […] Samples were washed twice with FACS buffer.

[3] = target: T2, human GPC3-his tag protein (human, UniProt P51654 25-559, limits assumed); test: SPR Biacore 8K, mAb captured, affinity ranking
T2 construct: recombinant soluble antigen used as analyte in all Biacore runs; also called recombinant GPC3 protein; rhGPC3-His; not shown: His tag
Experimental: To evaluate antigen binding activity, the chimeric antibody's affinity was measured by Biacore 8K. Two concentrations with most close affinity to the chimeric antibody's affinity were chosen for the 12 humanized antibodies' affinity detection. Human GPC3-his tag protein was injected over captured antibody for 3 mins at a flow rate of 30 μl/min. The antigen was allowed to dissociate for 720 s.

human GPC3 on cells [4] = target: T1, human GPC3 on cells; test: FACS, GPC3-CHOK1 cells
Experimental: Briefly, GPC3-CHOK1 cells were firstly incubated with Fc blocking reagent at 4° C. for 15 mins. Cells were washed by FACS buffer and divided to each well with 3-fold serially diluted 52H5D3B8, 52H5D3B8-1 #, 52H5D3B8-2 #, 52H5D3B8-3 #, 52H5D3B8-4 #, 52H5D3B8-5 #, 52H5D3B8-6 #, 52H5D3B8-7 #, 52H5D3B8-8 #, 52H5D3B8-9 #, 52H5D3B8-10 #, 52H5D3B8-11 #, 52H5D3B8-12 #, 52H5D3B8-13 #, 52H5D3B8-14 # and 52H5D3B8-15# chimeric mAbs starting at 30 μg/mL at 4° C. for 60 mins. Cells were washed by FACS buffer and fixed with 2% PFA at RT for 15 mins. […] Samples were washed twice with FACS buffer.

human GPC3 on cells [5] = target: T1, human GPC3 on cells; test: FACS, HEPG2 cells
Experimental: as §2, §3

human GPC3 on cells [6] = target: T1, human GPC3 on cells; test: FACS, GPC3-CHOK1 cells; remark: listed apart in the source
Experimental: as §1

[7] = target: T3, human GPC3 protein (ELISA coat) (human, UniProt P51654 25-559, limits assumed); test: ELISA, coated human GPC3
T3 construct: protein coated on plates in the cross species ELISA
Experimental: ELISA testing was carried out to evaluate the binding of chimeric antibodies to human, mouse and cynomolgus GPC3, respectively.
Briefly, microtiter plates were coated with human, mouse and cynomolgus GPC3 proteins at 1 μg/ml in PBS, 100 μl/well at 4° C. overnight, then blocked with 150 μl/well of 1% BSA. Three-fold dilutions of chimeric antibodies starting from 9 μg/ml were added to each well and incubated for 1 hour at 37° C. The plates were washed with PBS/Tween and then incubate with mouse-anti-human IgG Fc antibody conjugated with Horse Radish Peroxidase (HRP) for 30 mins at 37° C. After washing, the plates were developed with TMB substrate and analyzed by spectrophotometer at OD 450 nm. The 52H5D3B8 antibody bound to human, cynomolgus GPC3 and mouse GPC3 (FIG. 3 and Table 4).

B1: 52H5D3B8 chimeric mAb (antibody, V domains shown)
VH: QVQLQQSGAELVRPGASVKLSCKALGYTFTDYEMHWVKQTPVHGLEWIGAIHPGSGGTAYNQKFKGKATLTADKFSSTGYMELSSLTSEDSAVYYCTRFYSYAYWGQGTLVTVSA
VL: DVVMTQTPLSLPVSLGDQASISCRSSQSLVHSNGNTYLQWYLQKPGQSPKLLIYKVSNRFSGVPDRFSGSGSGTDFILKISRVEAEDLGVYFCSQSIHVPYTFGGGTKLEIK
notes: also called 52H5D3B8-VH+VL; chimeric 52H5D3B8 mAb
EC50 (human GPC3 on cells [1]): 0.0563 µg/mL
EC50 (human GPC3 on cells [2]): 0.0986 µg/mL
Kd [3]: 1.41 nM
koff [3]: 0.00049 s⁻¹
kon [3]: 347000 M⁻¹ s⁻¹
EC50 (human GPC3 on cells [4]): 0.0705 µg/mL
EC50 (human GPC3 on cells [5]): 0.111 µg/mL
EC50 (human GPC3 on cells [6]): 0.0479 µg/mL
EC50 [7]: 0.017 µg/mL
